Assay [1] addresses T1, human CEACAM1-Fc fusion protein (UniProt P13688 35-428).
T1 chain: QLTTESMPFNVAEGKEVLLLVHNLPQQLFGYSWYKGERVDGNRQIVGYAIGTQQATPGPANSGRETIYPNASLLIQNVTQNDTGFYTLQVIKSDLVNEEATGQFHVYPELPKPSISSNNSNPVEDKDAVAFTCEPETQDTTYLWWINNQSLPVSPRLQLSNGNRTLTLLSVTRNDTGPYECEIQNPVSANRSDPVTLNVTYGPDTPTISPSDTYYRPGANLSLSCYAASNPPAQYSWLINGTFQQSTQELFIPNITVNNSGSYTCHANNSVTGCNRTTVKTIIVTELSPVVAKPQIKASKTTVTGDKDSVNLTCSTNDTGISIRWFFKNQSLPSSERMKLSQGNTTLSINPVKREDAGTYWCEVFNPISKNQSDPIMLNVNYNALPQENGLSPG
Nature of the assay: BLI. (In BLI a coated tip is dipped into the sample, and binding shifts an interference pattern.)

Assay [2] addresses T1, human CEACAM1-Fc fusion protein. As to the kind of experiment: ELISA.
The next assay has as its target CC1-N-Fc. Nature of the assay: ELISA. For orientation: In an ELISA, binding on a coated surface is turned into a signal by an enzyme label.
For the next assay, the target named is recHopQ (Helicobacter pylori). As to the kind of experiment: BLI.

By Kd is commonly meant the free concentration of one partner at which half of the binding sites on the other are occupied at equilibrium, for simple one-to-one binding. As a reminder, the IC50 is the concentration needed to halve the response being measured. Read a low IC50 as greater potency in that assay.

B1: CC1/3/5-Sab (antibody, V domains shown)
VH: EVQLQQSGPELVKPGTSVKMSCKASGYTFTTYVMHWVQQKPGQGLDWIGFFNPYNDGTKYNEKFKGKATLTSDKSSSTAYMELSSLTSEDSAVYYCARWAYDGSYAYWGQGTTLTVSS
VL: DIQMTQSSSYLSVFLGGRVTITCKASDHINNWLAWYQQKPGNAPRLLISGATSLETGVPSRFSGSGSGKDYTLSIISLQTEDVATYYCQQYWRTPFTFGSGTKLEIK
Consider B1, for which the affinity in assay [1], expressed as Kd, was 54 nM. The molecule further came in with an IC50 in assay [2] of 0.146 nM.

B2: mAb CC1/3/5-Sab (antibody, V domains shown)
VH: B1 VH
VL: B1 VL
Consider B2, for which the IC50 in the assay with CC1-N-Fc turned out to be 0.107 nM.

B3: CEACAM1-Fc (Fc fusion)
chain: T1 chain
Turning to B3, in the assay with recHopQ, the Kd turned out to be 183 nM.

These data come from patent US20230295338A1 (published 2023).
